Results published in patent US8722622B2, “FGF21 conjugates and anti-diabetic uses thereof” (COVX Technologies Ireland, Limited, priority 2010, dated 2014).
Like-named read-outs stand apart in the source and are kept apart here.

Assays:
DIO mice = test: Mouse efficacy in high-fat diet-induced obese (DIO) mice; format: in vivo; conditions: day 10, 1 mg/kg QD
Description: (§1) The efficacy of FGF21 antibodies conjugates was evaluated in two murine obese insulin resistant models—ob/ob mice and high-fat diet-induced obese mice. For both models, male mice (6-8 weeks of age for ob/ob, 12-14 weeks of age for DIO with high-fat diet initiated at 6 weeks of age) were housed 2-4/cage and FGF21 antibody conjugates were administered by SC injection. Body weight was measured daily in the morning. Glucose tolerance was assessed by oral glucose tolerance test. Briefly, mice were fasted for 4-5 hrs in the morning of the day of testing. A basal blood sample was obtained and blood glucose levels were determined using a portable glucometer. Following basal sample, glucose was administered by oral gavage, and blood samples were drawn from 15 to 120 mins thereafter.
(§2) For […] expression, frozen visceral WAT samples collected from the in vivo efficacy studies were homogenized. Total RNA was extracted from the tissue homogenates, and Glut1 and GAPDH mRNA expression was measured using a Quantitect Probe RT-PCR kit and running a quantitative real time PCR reaction in a Taqman machine (Applied Biosystems). The effect of treatment was determined by a fold change in Glut1 mRNA levels normalized by the GAPDH mRNA levels from each sample.

[1] = set-up: species or system Swiss-Webster mice; conditions: mouse, in vivo
Description: The PK of FGF21 antibody conjugates were examined in mice after IV or SC administration. […] Antibody conjugates concentrations in serum were determined using an ELISA which captured the FGF21 portion of the antibody conjugates through a monoclonal anti-hFGF21 antibody bound to a 96-well plate. FGF21 antibody conjugates bound to the plate were detected through an anti-hFc monoclonal antibody, and concentrations were determined using a standard curve of the PK dosing solution diluted into serum-containing assay buffer. SC bioavailability was calculated as the ratio of the area-under the curve (AUC) of the SC serum concentration profile divided by the AUC of the IV serum concentration profile.

[2] = test system: Glut1 mRNA expression in differentiated 3T3-L1 adipocytes; test: Glut1 Taqman assay; format: cell-based
Description: Differentiated 3T3-L1 adipocytes were used to measure the Glut1 mRNA expression by qPCR method. Overnight serum starved day 10-14 differentiated 3T3-L1 adipocytes were treated with compounds for 6 hrs. Total RNA was extracted from these cells, and Glut1 and GAPDH mRNA expression was measured using a Quantitect Probe RT-PCR kit and running a quantitative real time PCR reaction in a Taqman machine (Applied Biosystems®). The bioactivity of the compounds was determined by a fold change in Glut1 mRNA levels normalized by the GAPDH mRNA levels from each sample. EC50 values as measurements of the potency of the compounds were obtained from the dose response curves in the assay.
3T3-L1 adipocytes were seeded at day 8 in 24-well tissue culture plates (Falcon®, Cat#353047), and incubated in DMEM complete medium (10% FBS, 2 mM L-glutamine, 1% P/S) at 37° C., 5% CO2. […] The medium was aspirated, and then RNA extracted from the cells using the RNeasy mini Kit according to the manufacturer's instructions. RNA was measured at A260 nm using the Spectramax® Plus spectrophotometer.

ob/ob mice = test: Mouse efficacy in ob/ob mice (OGTT, body weight, liver, gene expression); format: in vivo
Description: as §1, §2

[3] = ob/ob mice liver, day 6, qPCR, 1 mg/kg QD

B1: FGF21ΔH: FGF21 with H1 absent (ΔH1), L146, SEQ ID NO:2; control protein (protein, listed as Homo sapiens)
chain: PIPDSSPLLQFGGQVRQRYLYTDDAQQTEAHLEIREDGTVGGAADQSPESLLQLKALKPGVIQILGVKTSRFLCQRPDGALYGSLHFDPEACSFRELLLEDGYNVYQSEAHGLPLHLPGNKSPHRDPAPRGPARFLPLPGLPPAPLEPPGILAPQPPDVGSSDPLSMVGPSQGRSPSYAS
Which “Body weight change from day −1” value (DIO mice) does the source give for B1 here?
The value was −1.6.

What about the “Glucose AUC during OGTT” value (DIO mice) of the same molecule?
The value was 75.

And the “Mean values of serum lipids NEFA” value (DIO mice)?
The value was 0.40 mM.

And the “Mean values of serum lipids TG” value (DIO mice)?
The value was 92 mg/dL.

And the “UCP1 mRNA expression in WAT” value (DIO mice)?
Its value is 1.38.

What about the “IV T1/2” value ([1]; iv) of the same molecule?
Its value is 24 min.

And the “% SC BioAv” value ([1]; sc)?
Its value is 96%.

And the “SC T1/2” value ([1]; sc)?
Its value is 30 min.

And the EC50 ([2]; 3T3-L1 adipocytes, 6 hrs, Taqman quantitative real-time PCR, read-out: Glut1 RNA expression EC50)?
Its EC50 is 3.39 nM.

And the “Glut1 induction in 3T3-L1 adipocytes” value ([2]; 6 hrs)?
Its value is “dose-dependent Glut1 induction”.

What about the EC50 ([2]; unconjugated protein, n in brackets, read-out: Glut1 Taqman unconjugated Protein EC50) of the same molecule?
Its EC50 is 2.3 nM.

And the “GTT* (% AUC of Ctrl)” value (ob/ob mice; 1 mg/kg Qd (FGF21dH protein))?
The value was 67 % AUC of Ctrl.

What about the “Mean fold changes of mRNA expression, FoxA2” value (ob/ob mice; [3]) of the same molecule?
The value was 1.23 fold.

What about the “Mean fold changes of mRNA expression, MOGAT2” value (ob/ob mice; [3]) of the same molecule?
The value was 0.37 fold.

And the “Mean fold changes of mRNA expression, SCD1” value (ob/ob mice; [3])?
Its value is 0.95 fold.

And the “Mean Glucose AUC (% of vehicle control)” value (ob/ob mice; ob/ob mice, OGTT day 6, 1 mg/kg QD)?
The value was 61 % of vehicle control.

And the “Body weight change from day −1” value (ob/ob mice; ob/ob mice, day 6, 1 mg/kg QD)?
Its value is 4.7.

What about the “Glucose AUC during OGTT” value (ob/ob mice; ob/ob mice, day 6, 1 mg/kg QD) of the same molecule?
Its value is 67.

What about the “Liver Weight” value (ob/ob mice; ob/ob mice, day 6, 1 mg/kg QD) of the same molecule?
The value was 1.8 g.

What about the “Triglycerides content in liver” value (ob/ob mice; ob/ob mice, day 6, 1 mg/kg QD) of the same molecule?
The value was 37.0.

What about the “UCP1 mRNA expression in WAT” value (ob/ob mice; ob/ob mice, day 6, 1 mg/kg QD) of the same molecule?
Its value is 2.6.

What about the “Mean Glucose AUC (% of vehicle control) during OGTT” value (ob/ob mice; ob/ob mice, single SC dose 0.6 mg/kg (FIG. 4A)) of the same molecule?
The value was 103 % of vehicle control.

What about the “Cumulative body weight change, mean body weight” value (shortened to “Cumulative body weight change”) (ob/ob mice; ob/ob mice, single SC dose 0.6 mg/kg (FIG. 5A)) of the same molecule?
The value was 3.2 g.

And the “mean liver weight” value (ob/ob mice; ob/ob mice, single SC dose 0.6 mg/kg (FIG. 5B))?
Its value is 2.4 g.

And the “Cumulative body weight change” value (ob/ob mice; ob/ob mice, single SC dose 1 mg/kg (FIG. 5A))?
The value was 2.5 g.

And the “mean liver weight” value (ob/ob mice; ob/ob mice, single SC dose 1 mg/kg (FIG. 5B))?
The value was 2.2 g.

What about the “Mean Glucose AUC (% of vehicle control) during OGTT” value (ob/ob mice; ob/ob mice, single SC dose 1 mg/kg (FIGS. 4A, 4B)) of the same molecule?
Its value is 74 % of vehicle control.

What about the “Cumulative body weight change” value (ob/ob mice; ob/ob mice, single dose, dose not printed (FIG. 6A)) of the same molecule?
The value was 1.9 g.

And the “mean glucose AUC % during OGTT” value (ob/ob mice; ob/ob mice, single dose, dose not printed (FIG. 6B))?
The value was 63%.
